Measurements reported in patent US20020103123A1, “Methods of modifying feeding behavior, compounds useful in such methods, and DNA encoding a hypothalamic atypical neuropeptide Y/peptide YY receptor (Y5)” (Synaptic Pharmaceutical Corporation, published 2002).
Read-outs that look alike come from different tables or passages of the source. Ends that are not written are not given here.

T1: rat hypothalamic Y5 receptor (rat)
T1 chain: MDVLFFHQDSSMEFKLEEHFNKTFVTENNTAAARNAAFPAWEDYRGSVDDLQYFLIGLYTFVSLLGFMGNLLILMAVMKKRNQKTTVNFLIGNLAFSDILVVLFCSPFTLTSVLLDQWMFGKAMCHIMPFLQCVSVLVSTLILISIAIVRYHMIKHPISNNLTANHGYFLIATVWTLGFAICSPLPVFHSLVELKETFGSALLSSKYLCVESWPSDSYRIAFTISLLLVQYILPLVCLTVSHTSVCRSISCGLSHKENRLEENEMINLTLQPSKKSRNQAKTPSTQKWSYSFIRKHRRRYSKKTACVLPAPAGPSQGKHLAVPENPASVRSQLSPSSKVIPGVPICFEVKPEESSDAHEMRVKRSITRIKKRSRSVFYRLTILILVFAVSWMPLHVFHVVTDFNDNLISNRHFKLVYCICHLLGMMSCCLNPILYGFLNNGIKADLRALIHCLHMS

T2: human hippocampal Y5 receptor (human)
T2 chain: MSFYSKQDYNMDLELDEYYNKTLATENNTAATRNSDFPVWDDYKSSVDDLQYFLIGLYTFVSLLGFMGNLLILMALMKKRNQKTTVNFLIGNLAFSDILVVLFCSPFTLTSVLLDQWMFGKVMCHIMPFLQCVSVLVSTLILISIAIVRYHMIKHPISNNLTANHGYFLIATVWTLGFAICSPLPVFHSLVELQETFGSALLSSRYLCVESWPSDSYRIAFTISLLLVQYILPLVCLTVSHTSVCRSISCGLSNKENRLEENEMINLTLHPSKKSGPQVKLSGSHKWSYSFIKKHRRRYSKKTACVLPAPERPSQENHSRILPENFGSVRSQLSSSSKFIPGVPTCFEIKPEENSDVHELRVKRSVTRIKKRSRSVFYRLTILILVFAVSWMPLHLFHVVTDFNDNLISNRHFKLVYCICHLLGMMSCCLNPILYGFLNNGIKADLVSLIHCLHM

T3: rat Y2 receptor (rat, UniProt Q9ERC0)
T3 sequence: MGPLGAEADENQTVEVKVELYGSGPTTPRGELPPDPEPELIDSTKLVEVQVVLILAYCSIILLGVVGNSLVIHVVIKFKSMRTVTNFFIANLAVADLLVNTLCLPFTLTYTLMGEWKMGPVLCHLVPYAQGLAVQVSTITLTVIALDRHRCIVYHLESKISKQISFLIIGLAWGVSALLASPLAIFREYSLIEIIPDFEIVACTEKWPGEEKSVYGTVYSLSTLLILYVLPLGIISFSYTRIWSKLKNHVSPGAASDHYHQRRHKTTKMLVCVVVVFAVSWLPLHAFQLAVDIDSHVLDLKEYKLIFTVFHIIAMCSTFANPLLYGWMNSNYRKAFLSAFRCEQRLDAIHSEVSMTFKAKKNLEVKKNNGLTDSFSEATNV

T4: human Y2 receptor (human, UniProt P49146)
T4 sequence: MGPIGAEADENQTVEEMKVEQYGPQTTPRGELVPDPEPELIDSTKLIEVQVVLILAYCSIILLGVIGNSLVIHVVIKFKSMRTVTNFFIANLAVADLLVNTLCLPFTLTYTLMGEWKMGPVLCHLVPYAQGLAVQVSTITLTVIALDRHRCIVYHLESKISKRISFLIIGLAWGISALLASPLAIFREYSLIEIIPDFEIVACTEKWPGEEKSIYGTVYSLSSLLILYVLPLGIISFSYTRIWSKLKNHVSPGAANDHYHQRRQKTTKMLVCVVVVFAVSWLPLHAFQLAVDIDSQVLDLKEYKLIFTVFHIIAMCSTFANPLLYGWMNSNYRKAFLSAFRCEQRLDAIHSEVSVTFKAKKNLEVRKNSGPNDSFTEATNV


What was measured:
[1] = target: T1, rat hypothalamic Y5 receptor; experiment: 125I-PYY displacement, COS-7 membranes
[2] = target: T2, human hippocampal Y5 receptor; experiment: 125I-PYY displacement, COS-7 membranes
[3] = target: T2, human hippocampal Y5 receptor; experiment: 125I-PYY3-36 displacement, LM(tk-) membranes
rat Y2 receptor = target: T3, rat Y2 receptor; experiment: 125I-PYY displacement, COS-7 membranes
rat Y1 receptor = rat Y1 receptor (rat, UniProt P21555); experiment: 125I-PYY displacement, COS-7 membranes
[4] = target: T1, rat hypothalamic Y5 receptor; experiment: 125I-PYY displacement, COS-7 membranes
rat Y4 receptor = rat Y4 receptor (rat, UniProt Q63447); experiment: 125I-PYY displacement, COS-7 membranes
[5] = target: T2, human hippocampal Y5 receptor; experiment: 125I-PYY displacement, COS-7 membranes
[6] = target: T1, rat hypothalamic Y5 receptor; experiment: 125I-PYY displacement, COS-7 membranes
[7] = target: T2, human hippocampal Y5 receptor; experiment: 125I-PYY displacement, LM(tk-) membranes
human Y4 receptor [8] = target: T5, human Y4 receptor (human, UniProt P50391); experiment: 125I-PYY displacement, COS-7 membranes
human Y2 receptor [9] = target: T4, human Y2 receptor; experiment: 125I-PYY displacement, COS-7 membranes; tested only up to 100 nM
human Y1 receptor [10] = target: T6, human Y1 receptor (human, UniProt P25929); experiment: as above
human Y4 receptor [11] = target: T5, human Y4 receptor; experiment: 125I-PYY displacement, COS-7 membranes; remark: listed apart in the source
human Y2 receptor [12] = target: T4, human Y2 receptor; experiment: 125I-PYY displacement, COS-7 membranes; tested only up to 100 nM; remark: listed apart in the source
human Y1 receptor [13] = target: T6, human Y1 receptor; experiment: as above; remark: listed apart in the source
human Y2 receptor [14] = target: T4, human Y2 receptor; experiment: 125I-PYY displacement, COS-7 membranes
human Y1 receptor [15] = target: T6, human Y1 receptor; experiment: 125I-PYY displacement, COS-7 membranes
human Y2 receptor [16] = target: T4, human Y2 receptor; experiment: 125I-PYY displacement, COS-7 membranes; remark: listed apart in the source
human Y1 receptor [17] = target: T6, human Y1 receptor; experiment: 125I-PYY displacement, COS-7 membranes; remark: listed apart in the source

Row | Ki [1] | Ki [2] | Ki (rat Y2 receptor) | Ki (rat Y1 receptor) | Ki [4] | Binder | further results
1 | 260 nM | 300 nM | 35 nM | 140 nM | 260 nM | DLARYYSALRHYINLITRQRY (ends and bridges not checked) [porcine NPY16-36] | Ki [3]: 180 nM; Ki (rat Y4 receptor): 200 nM
2 |  | 2.1 nM |  |  |  | PLEPVYPGDNATPEQMAQYAADLRRYINMLTRPRY [human PP2-36] | Ki [5]: 2.1 nM
3 | > 1000 nM | > 470 nM |  |  | > 1000 nM | ARYYSALRHYINLITRQRY (ends and bridges not checked) [porcine NPY18-36] | 
4 |  |  |  |  | > 10000 nM | PLEPVY-OH [human PP31-36 free acid] | Ki (rat Y4 receptor): > 100 nM
5 | > 10000 nM | > 10000 nM | > 10000 nM | > 10000 nM | > 1000 nM | PLEPVY [human PP31-36] | Ki [3]: 41000 nM; Ki (rat Y4 receptor): 26 nM
6 | 5 nM |  | > 1000 nM |  | 5 nM | APLEPVYPGDNATPEQMAQYAADLRRYINMLTRPRY [human PP] | Ki [6]: 5 nM; Ki [7]: 3 nM; Ki (rat Y4 receptor): 0.04 nM
7 | 8.4 nM | 1.6 nM | > 1000 nM | 120 nM | 8.4 nM | APLEPEYPGDNATPEQMAQYAAELRRYINMLTRPRY [bovine PP] | Ki [3]: 5 nM; Ki [7]: 7.9 nM
8 |  |  |  |  | > 1000 nM | YPSKPDNPGEDAPAEDMARYYSAL-NH2 [human NPY1-24 amide] | 
9 | 290 nM | 720 nM | > 650 nM | > 1000 nM | 84 nM | TPEQMAQYAADLRRYINMLTRPRY [human PP13-36] | Ki (human Y4 receptor [8]): 39 nM; Ki (human Y2 receptor [9]): > 100 nM; Ki (human Y1 receptor [10]): > 100 nM; Ki (human Y4 receptor [11]): 39 nM; Ki [5]: 720 nM; Ki (human Y2 receptor [12]): > 100 nM; Ki (human Y1 receptor [13]): > 100 nM
10 | 230 nM | 630 nM | > 1000 nM |  | 230 nM | APLEPMYPGDYATHEQRAQYETQLRRYINTLTRPRY [rat PP] | Ki (human Y2 receptor [14]): > 1000 nM; Ki (human Y4 receptor [8]): 0.16 nM; Ki [6]: 180 nM; Ki (human Y1 receptor [15]): 450 nM; Ki [3]: 130 nM; Ki (human Y2 receptor [16]): > 1000 nM; Ki (human Y4 receptor [11]): 0.16 nM; Ki [5]: 630 nM; Ki (human Y1 receptor [17]): 450 nM
11 | > 1000 nM | > 1000 nM | 54 nM | > 1000 nM | > 1000 nM | SALRHYINLITRQRY (ends and bridges not checked) [porcine NPY22-36] | 
12 |  |  |  | 45000 nM | 5500 nM | FLRF-NH2 [FLRF-amide] | 
13 |  |  | 31 nM | 190 nM |  | PAEDLARYYSALRHYINLITRQRY (ends and bridges not checked) [porcine NPY13-36] | 
14 |  |  |  | > 1000 nM |  | HYINLITRQRY (ends and bridges not checked) [porcine NPY26-36] | Ki (human Y2 receptor [14]): 380 nM; Ki (human Y1 receptor [15]): > 1000 nM; Ki (human Y2 receptor [16]): 380 nM; Ki (human Y1 receptor [17]): > 1000 nM
15 |  |  |  |  | > 100 nM | YYSALRHYINLITRQRY (ends and bridges not checked) [porcine NPY20-36] | 
16 |  |  |  | 130 nM |  | SPEELNRYYASLRHYLNLVTRQRY [human PYY13-36] | 
